Positions count from the first letter of the chain named. Numbers in names are those of the source.
B1: IL-17RB ΔV403˜S416 (Del-3), HA-tagged (receptor)
chain: REPTVQCGSETGPSPEWMLQHDLIPGDLRDLRVEPVTTSVATGDYSILMNVSWVLRADASIRLLKATKICVTGKSNFQSYSCVRCNYTEAFQTQTRPSGGKWTFSYIGFPVELNTVYFIGAHNIPNANMNEDGPSMSVNFTSPGCLDHIMKYKKKCVKAGSLWDPNITACKKNEETVEVNFTTTPLGNRYMALIQHSTIIGFSQVFEPHQKKQTRASVVIPVTGDSEGATVQLTPYFPTCGSDCIRHKGTVVLCPQTGVPFPLDNNKSKPGGWLPLLLLSLLVATWVLVAGIYLMWRHERIKKTSFSTTTLLPPIKVLVVYPSEICFHHTICYFTEFLQNHCRSEVILEKWQKKKIAEMGPVQWLATQKKAADKVVFLLSNDVNSENSQDLFPLAFNLFCSDLRSQIHLHKYVVVYFREIDTKDDYNALSVCPKYHLMKDATAFCAELLHVKQQVSAGKRSQACHDGCCSL
notes: Deletion of the flexible loop; also called Del-3 mutant; not shown: HA tag
B2: IL-17RB K470R, Flag-tagged (receptor)
chain: REPTVQCGSETGPSPEWMLQHDLIPGDLRDLRVEPVTTSVATGDYSILMNVSWVLRADASIRLLKATKICVTGKSNFQSYSCVRCNYTEAFQTQTRPSGGKWTFSYIGFPVELNTVYFIGAHNIPNANMNEDGPSMSVNFTSPGCLDHIMKYKKKCVKAGSLWDPNITACKKNEETVEVNFTTTPLGNRYMALIQHSTIIGFSQVFEPHQKKQTRASVVIPVTGDSEGATVQLTPYFPTCGSDCIRHKGTVVLCPQTGVPFPLDNNKSKPGGWLPLLLLSLLVATWVLVAGIYLMWRHERIKKTSFSTTTLLPPIKVLVVYPSEICFHHTICYFTEFLQNHCRSEVILEKWQKKKIAEMGPVQWLATQKKAADKVVFLLSNDVNSVCDGTCGKSEGSPSENSQDLFPLAFNLFCSDLRSQIHLHKYVVVYFREIDTKDDYNALSVCPKYHLMRDATAFCAELLHVKQQVSAGKRSQACHDGCCSL
notes: also called K470R-mutant IL-17RB; not shown: Flag tag

Assays:
[1] = target: T1, mixed-lineage kinase 4 (MLK4), endogenous (human, UniProt Q5TCX8 1-1036, limits assumed); assay: co-IP with anti-HA beads, blot with anti-MLK4, rIL-17B (FIG. 5D)
T1 construct: also called KIAA1804; MAP3K21
T1 sequence (Q5TCX8 whole entry): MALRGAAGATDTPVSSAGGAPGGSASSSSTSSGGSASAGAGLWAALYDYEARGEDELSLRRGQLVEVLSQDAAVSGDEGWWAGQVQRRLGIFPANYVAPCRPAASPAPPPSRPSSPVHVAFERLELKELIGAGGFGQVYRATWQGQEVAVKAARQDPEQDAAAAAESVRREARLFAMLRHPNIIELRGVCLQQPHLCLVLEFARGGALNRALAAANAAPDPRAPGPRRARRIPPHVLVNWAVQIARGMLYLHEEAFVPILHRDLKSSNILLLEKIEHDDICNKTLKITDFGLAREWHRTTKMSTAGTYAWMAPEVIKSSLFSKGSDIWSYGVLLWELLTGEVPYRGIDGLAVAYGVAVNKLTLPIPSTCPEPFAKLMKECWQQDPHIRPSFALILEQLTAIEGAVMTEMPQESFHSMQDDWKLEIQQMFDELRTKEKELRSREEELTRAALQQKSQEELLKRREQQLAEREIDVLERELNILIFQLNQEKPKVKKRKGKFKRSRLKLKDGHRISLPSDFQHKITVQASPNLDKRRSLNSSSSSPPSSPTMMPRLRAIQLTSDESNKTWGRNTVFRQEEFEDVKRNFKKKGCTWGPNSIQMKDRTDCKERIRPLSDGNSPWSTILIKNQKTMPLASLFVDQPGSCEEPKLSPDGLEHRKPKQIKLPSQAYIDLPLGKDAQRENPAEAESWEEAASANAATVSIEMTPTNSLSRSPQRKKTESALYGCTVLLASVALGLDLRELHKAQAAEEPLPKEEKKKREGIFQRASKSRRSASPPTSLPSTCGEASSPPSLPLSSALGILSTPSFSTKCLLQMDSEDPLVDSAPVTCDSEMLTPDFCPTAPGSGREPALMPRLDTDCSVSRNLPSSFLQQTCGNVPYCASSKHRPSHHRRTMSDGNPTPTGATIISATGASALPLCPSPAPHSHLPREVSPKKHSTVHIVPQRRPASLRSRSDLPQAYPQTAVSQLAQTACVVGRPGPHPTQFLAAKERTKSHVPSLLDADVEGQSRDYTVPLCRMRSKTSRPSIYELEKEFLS

Flag-MLK4 = target: T2, Flag-MLK4 (human, UniProt Q5TCX8 1-1036, limits assumed); assay: reciprocal co-IP, 293T cells, rIL-17B (FIG. 5C)
T2 construct: also called Flag-tagged WT MLK4; not shown: Flag tag
T2 sequence (Q5TCX8 whole entry): as above

ACT1, endogenous = target: T3, ACT1, endogenous (human, UniProt O43734 1-574, limits assumed); assay: co-IP with anti-Flag agarose, IL-17RB-KO BxPC3 cells, rIL-17B (FIG. 6G)
T3 sequence (looked up): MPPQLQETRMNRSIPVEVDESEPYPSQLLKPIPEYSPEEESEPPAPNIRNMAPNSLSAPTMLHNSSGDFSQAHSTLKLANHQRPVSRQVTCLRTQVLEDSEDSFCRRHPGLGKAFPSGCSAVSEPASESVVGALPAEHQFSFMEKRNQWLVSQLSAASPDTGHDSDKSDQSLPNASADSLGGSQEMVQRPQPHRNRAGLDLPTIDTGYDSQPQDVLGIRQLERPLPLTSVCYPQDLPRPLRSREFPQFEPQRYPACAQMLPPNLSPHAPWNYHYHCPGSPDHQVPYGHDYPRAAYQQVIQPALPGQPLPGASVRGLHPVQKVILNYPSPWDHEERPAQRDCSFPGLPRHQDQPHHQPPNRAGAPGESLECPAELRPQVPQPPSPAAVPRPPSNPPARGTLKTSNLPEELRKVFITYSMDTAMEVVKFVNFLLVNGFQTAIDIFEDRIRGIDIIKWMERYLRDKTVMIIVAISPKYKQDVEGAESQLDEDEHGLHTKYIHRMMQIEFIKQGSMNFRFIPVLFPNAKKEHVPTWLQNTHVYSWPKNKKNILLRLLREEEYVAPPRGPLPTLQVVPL

TAK1, endogenous = target: T4, TAK1, endogenous (human, UniProt O43318 1-606, limits assumed); assay: as above
T4 sequence (looked up): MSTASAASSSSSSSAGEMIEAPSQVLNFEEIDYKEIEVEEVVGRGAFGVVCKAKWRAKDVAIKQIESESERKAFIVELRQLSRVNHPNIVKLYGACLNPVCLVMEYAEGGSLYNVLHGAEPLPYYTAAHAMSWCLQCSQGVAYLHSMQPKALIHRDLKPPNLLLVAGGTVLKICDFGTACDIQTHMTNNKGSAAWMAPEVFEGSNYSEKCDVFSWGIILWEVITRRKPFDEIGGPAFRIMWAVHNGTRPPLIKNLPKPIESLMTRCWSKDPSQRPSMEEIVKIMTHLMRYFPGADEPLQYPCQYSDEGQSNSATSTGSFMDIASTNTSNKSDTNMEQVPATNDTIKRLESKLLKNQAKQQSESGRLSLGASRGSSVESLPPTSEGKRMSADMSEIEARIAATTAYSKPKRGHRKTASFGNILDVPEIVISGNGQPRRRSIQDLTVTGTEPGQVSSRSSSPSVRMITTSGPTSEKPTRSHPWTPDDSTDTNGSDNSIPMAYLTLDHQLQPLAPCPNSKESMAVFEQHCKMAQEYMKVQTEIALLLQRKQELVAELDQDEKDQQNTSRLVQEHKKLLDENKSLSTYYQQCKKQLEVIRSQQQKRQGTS

TRAF6, endogenous = target: T5, TRAF6, endogenous (human, UniProt Q9Y4K3 1-522); assay: as above
T5 sequence (looked up): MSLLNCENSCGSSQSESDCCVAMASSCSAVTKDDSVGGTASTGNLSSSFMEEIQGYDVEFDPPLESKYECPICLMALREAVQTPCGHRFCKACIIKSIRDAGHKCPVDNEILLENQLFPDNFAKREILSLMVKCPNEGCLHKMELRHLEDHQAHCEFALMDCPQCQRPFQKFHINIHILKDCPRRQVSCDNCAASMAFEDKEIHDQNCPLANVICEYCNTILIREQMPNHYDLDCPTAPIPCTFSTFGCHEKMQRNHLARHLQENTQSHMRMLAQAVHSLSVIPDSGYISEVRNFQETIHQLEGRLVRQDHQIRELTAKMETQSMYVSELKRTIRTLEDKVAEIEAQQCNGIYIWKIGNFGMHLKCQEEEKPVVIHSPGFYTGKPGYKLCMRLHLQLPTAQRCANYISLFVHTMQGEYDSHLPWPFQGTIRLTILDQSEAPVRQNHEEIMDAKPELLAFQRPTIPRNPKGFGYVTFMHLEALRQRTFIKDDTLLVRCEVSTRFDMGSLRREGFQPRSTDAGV

[2] = target: T6, IL-17RB-HA (C-terminally HA-tagged full-length IL-17RB, wild type) (human, UniProt Q9NRM6 18-502); assay: co-IP with anti-HA beads, IL-17RB-KO BxPC3 cells, 50 ng/ml rIL-17B (FIG. 14B)
T6 construct: Full-length IL-17RB subcloned into pcDNA3.1, expressed in 293T, IL-17RB-KO BxPC3 or SU.86.86 cells; also called HA-IL-17RB; HA-tagged WT IL-17RB; not shown: HA tag, C-terminal
T6 sequence: B2 chain with R453K

Row | Binder | binding result [1] | binding result (Flag-MLK4) | binding result (ACT1, endogenous) | binding result (TAK1, endogenous) | binding result (TRAF6, endogenous) | binding result [2]
1 | B1 | no binding | no binding |  |  |  | 
2 | B2 |  |  | no binding | no binding | no binding | binds
